Experimental data published in paper PMC4119840 (Biochimie, 2014).
Values joined by “and” are separate entries in the source; they are usually repeats but may differ in a detail not shown here. Equal values may be shown once.

Molecular target: the molecule itself
Experiment: SEC

B1: mouse Serum amyloid A 1.1 (SAA1.1), lipid-free (natural protein)
chain: GFFSFIGEAFQGAGDMWRAYTDMKEAGWKDGDKYFHARGNYDAAQRGPGGVWAAEKISDARESFQEFFGRGHEDTMADQEANRHGRSGKDPNYYRPPGLPAKY
stoichiometry N: 12 and 4
